# In patent US20220033501A1:
# Assays:
# [1] = biological target: murine TIM-3 extracellular domain protein with hFc tag (mTIM-3-hFc) (mouse) (UniProt Q8VIM0); experiment: ELISA, coated mouse TIM-3 ECD protein, 0.0667 nM antibody
# [2] = biological target: murine TIM-3 extracellular domain protein with hFc tag (mTIM-3-hFc) (mouse) (UniProt Q8VIM0); experiment: ELISA, coated mouse TIM-3 ECD protein, 6.6667 nM antibody
# [3] = biological target: monkey TIM-3 on CHOK1 stable cell line (CHOK1-cTIM-3) (monkey); experiment: FACS, CHOK1-cTIM-3 cells, 0 nM antibody
# [4] = biological target: human TIM-3 on CHOK1 stable cell line (CHOK1-hTIM-3) (human) (UniProt Q8TDQ0); experiment: FACS, CHOK1-hTIM-3 cells, 0 nM antibody
# [5] = biological target: human TIM-3 on CHOK1 stable cell line (CHOK1-hTIM-3) (human) (UniProt Q8TDQ0); experiment: FACS, CHOK1-hTIM-3 cells, 1.6 nM antibody
# [6] = biological target: monkey TIM-3 on CHOK1 stable cell line (CHOK1-cTIM-3) (monkey); experiment: FACS, CHOK1-cTIM-3 cells, 40 nM antibody
# [7] = biological target: human TIM-3 extracellular domain protein with hFc tag (hTIM-3-hFc) (human) (UniProt Q8TDQ0); experiment: FACS, blocking of hTIM-3-hFc binding to phosphatidylserine on apoptotic Jurkat cells, 22.222 nM antibody
# [8] = biological target: monkey TIM-3 on CHOK1 stable cell line (CHOK1-cTIM-3) (monkey); experiment: FACS, CHOK1-cTIM-3 cells, 1.6 nM antibody
# [9] = biological target: human TIM-3 extracellular domain protein with hFc tag (hTIM-3-hFc) (human) (UniProt Q8TDQ0); experiment: FACS, blocking of hTIM-3-hFc binding to phosphatidylserine on apoptotic Jurkat cells, 2.469 nM antibody
# [10] = biological target: monkey TIM-3 on CHOK1 stable cell line (CHOK1-cTIM-3) (monkey); experiment: FACS, CHOK1-cTIM-3 cells, 8 nM antibody
# [11] = biological target: human TIM-3 extracellular domain protein with hFc tag (hTIM-3-hFc) (human) (UniProt Q8TDQ0); experiment: ELISA, coated human TIM-3 ECD protein, 0.0007 nM antibody
# [12] = biological target: murine TIM-3 extracellular domain protein with hFc tag (mTIM-3-hFc) (mouse) (UniProt Q8VIM0); experiment: ELISA, coated mouse TIM-3 ECD protein, 0.6667 nM antibody
# [13] = biological target: murine TIM-3 extracellular domain protein with hFc tag (mTIM-3-hFc) (mouse) (UniProt Q8VIM0); experiment: ELISA, coated mouse TIM-3 ECD protein, 0 nM antibody
# [14] = biological target: human TIM-3 extracellular domain protein with hFc tag (hTIM-3-hFc) (human) (UniProt Q8TDQ0); experiment: ELISA, coated human TIM-3 ECD protein, 0.6667 nM antibody
# [15] = biological target: human TIM-3 extracellular domain protein with hFc tag (hTIM-3-hFc) (human) (UniProt Q8TDQ0); experiment: ELISA, coated human TIM-3 ECD protein, 0.0067 nM antibody
# [16] = biological target: monkey TIM-3 extracellular domain protein with hFc tag (cTIM-3-hFc) (monkey); experiment: ELISA, coated monkey TIM-3 ECD protein, 0.0007 nM antibody
# [17] = biological target: human TIM-3 extracellular domain protein with hFc tag (hTIM-3-hFc) (human) (UniProt Q8TDQ0); experiment: FACS, blocking of hTIM-3-hFc binding to phosphatidylserine on apoptotic Jurkat cells, 0.274 nM antibody
# [18] = biological target: monkey TIM-3 on CHOK1 stable cell line (CHOK1-cTIM-3) (monkey); experiment: FACS, CHOK1-cTIM-3 cells, 0.013 nM antibody
# [19] = biological target: murine TIM-3 extracellular domain protein with hFc tag (mTIM-3-hFc) (mouse) (UniProt Q8VIM0); experiment: ELISA, coated mouse TIM-3 ECD protein, 0.0067 nM antibody
# [20] = biological target: human TIM-3 on CHOK1 stable cell line (CHOK1-hTIM-3) (human) (UniProt Q8TDQ0); experiment: FACS, CHOK1-hTIM-3 cells, 0.32 nM antibody
# [21] = biological target: TIM-3 protein on human peripheral blood mononuclear lymphocytes (PBMC) (human) (UniProt Q8TDQ0); experiment: cell-based or functional assay
# [22] = biological target: murine TIM-3 extracellular domain protein with hFc tag (mTIM-3-hFc) (mouse) (UniProt Q8VIM0); experiment: ELISA, coated mouse TIM-3 ECD protein, 66.667 nM antibody
# [23] = biological target: murine TIM-3 extracellular domain protein with hFc tag (mTIM-3-hFc) (mouse) (UniProt Q8VIM0); experiment: ELISA, coated mouse TIM-3 ECD protein, 0.0007 nM antibody
# [24] = biological target: human TIM-3 extracellular domain protein with hFc tag (hTIM-3-hFc) (human) (UniProt Q8TDQ0); experiment: FACS, blocking of hTIM-3-hFc binding to phosphatidylserine on apoptotic Jurkat cells, 66.667 nM antibody
# [25] = biological target: monkey TIM-3 extracellular domain protein with hFc tag (cTIM-3-hFc) (monkey); experiment: ELISA, coated monkey TIM-3 ECD protein, 0.6667 nM antibody
# [26] = biological target: monkey TIM-3 extracellular domain protein with hFc tag (cTIM-3-hFc) (monkey); experiment: ELISA, coated monkey TIM-3 ECD protein, 0.0001 nM antibody
# [27] = biological target: monkey TIM-3 extracellular domain protein with hFc tag (cTIM-3-hFc) (monkey); experiment: ELISA, coated monkey TIM-3 ECD protein, 0.0067 nM antibody
# [28] = biological target: monkey TIM-3 extracellular domain protein with hFc tag (cTIM-3-hFc) (monkey); experiment: ELISA, coated monkey TIM-3 ECD protein, 0.0667 nM antibody
# [29] = biological target: human TIM-3 extracellular domain protein with hFc tag (hTIM-3-hFc) (human) (UniProt Q8TDQ0); experiment: FACS, blocking of hTIM-3-hFc binding to phosphatidylserine on apoptotic Jurkat cells, 7.407 nM antibody
# Chain of monkey TIM-3 extracellular domain protein with hFc tag (cTIM-3-hFc) (monkey) (chain, as listed by the source): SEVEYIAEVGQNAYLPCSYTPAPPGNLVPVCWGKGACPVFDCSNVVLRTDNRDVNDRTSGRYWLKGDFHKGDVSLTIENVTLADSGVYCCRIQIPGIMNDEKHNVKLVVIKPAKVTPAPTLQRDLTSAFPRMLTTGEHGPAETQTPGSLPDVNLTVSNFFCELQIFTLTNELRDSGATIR
# Chain of monkey TIM-3 on CHOK1 stable cell line (CHOK1-cTIM-3) (monkey) (chain, as listed by the source limits assumed): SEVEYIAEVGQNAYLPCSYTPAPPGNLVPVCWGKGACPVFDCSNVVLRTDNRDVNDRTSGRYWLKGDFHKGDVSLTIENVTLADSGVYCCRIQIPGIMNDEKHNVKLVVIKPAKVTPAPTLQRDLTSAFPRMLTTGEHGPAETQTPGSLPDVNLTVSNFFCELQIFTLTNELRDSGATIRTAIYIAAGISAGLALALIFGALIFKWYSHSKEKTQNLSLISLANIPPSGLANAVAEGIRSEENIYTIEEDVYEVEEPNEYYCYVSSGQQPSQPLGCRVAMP
# Chain of murine TIM-3 extracellular domain protein with hFc tag (mTIM-3-hFc) (mouse) (Q8VIM0 other isoform, or with tags, fused parts or gaps): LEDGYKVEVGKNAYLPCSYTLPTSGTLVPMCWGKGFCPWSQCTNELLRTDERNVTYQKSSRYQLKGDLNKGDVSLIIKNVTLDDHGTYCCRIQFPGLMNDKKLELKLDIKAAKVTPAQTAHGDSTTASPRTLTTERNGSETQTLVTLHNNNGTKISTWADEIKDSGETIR
# Chain of human TIM-3 extracellular domain protein with hFc tag (hTIM-3-hFc) (human) (Q8TDQ0 22-200): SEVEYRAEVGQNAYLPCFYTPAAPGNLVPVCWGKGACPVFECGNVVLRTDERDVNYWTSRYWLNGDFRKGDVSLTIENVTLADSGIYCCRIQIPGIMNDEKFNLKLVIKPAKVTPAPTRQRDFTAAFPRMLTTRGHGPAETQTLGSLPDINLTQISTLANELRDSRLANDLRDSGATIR
# Chain of TIM-3 protein on human peripheral blood mononuclear lymphocytes (PBMC) (human) (Q8TDQ0 22-301 limits assumed): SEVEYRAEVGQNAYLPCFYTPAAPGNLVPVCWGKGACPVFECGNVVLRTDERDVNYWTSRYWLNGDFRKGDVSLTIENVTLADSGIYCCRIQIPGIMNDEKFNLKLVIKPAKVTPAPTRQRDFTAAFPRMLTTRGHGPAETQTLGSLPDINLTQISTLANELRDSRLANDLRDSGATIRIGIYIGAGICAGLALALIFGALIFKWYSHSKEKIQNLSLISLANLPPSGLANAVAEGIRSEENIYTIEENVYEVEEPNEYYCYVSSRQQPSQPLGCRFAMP
# Chain of human TIM-3 on CHOK1 stable cell line (CHOK1-hTIM-3) (human) (Q8TDQ0 22-301 limits assumed): as above
substance,measurement,setting,value
human IgG control (antibody),OD450,[1],0.21
same,OD450,[2],0.3
same,Mean fluorescence intensity,[3],2.9
same,Mean fluorescence intensity,[4],2.8
same,Mean fluorescence intensity,[5],3.1
same,Mean fluorescence intensity,[6],6
same,Inhibition ratio (%),[7],-2.8%
same,Mean fluorescence intensity,[8],3.2
same,Inhibition ratio (%),[9],-3.9%
same,Mean fluorescence intensity,[10],3.7
same,OD450,[11],0.07
same,OD450,[12],0.22
same,OD450,[13],0.23
same,OD450,[14],0.07
same,OD450,[15],0.07
same,OD450,[16],0.14
same,Inhibition ratio (%),[17],-20%
same,Mean fluorescence intensity,[18],2.8
same,OD450,[19],0.21
same,Mean fluorescence intensity,[20],2.9
same,"IFN-γ production (donor X); antibody 0.1 µg/ml, N = 1",[21],2040 pg/mL
same,"IFN-γ production (donor X); antibody 0.1 µg/ml, N = 2",[21],2060 pg/mL
same,"IFN-γ production (donor X); antibody 1 µg/ml, N = 1",[21],2090 pg/mL
same,"IFN-γ production (donor X); antibody 1 µg/ml, N = 2",[21],2070 pg/mL
same,"IFN-γ production (donor X); antibody 10 µg/ml, N = 1",[21],2030 pg/mL
same,"IFN-γ production (donor X); antibody 10 µg/ml, N = 2",[21],2020 pg/mL
same,"IFN-γ production (donor X); antibody '0' (4th head as printed), N = 1",[21],2260 pg/mL
same,"IFN-γ production (donor X); antibody '0' (4th head as printed), N = 2",[21],1900 pg/mL
same,"IFN-γ production (donor X); antibody '0' (5th head as printed), N = 1",[21],2000 pg/mL
same,"IFN-γ production (donor X); antibody '0' (5th head as printed), N = 2",[21],2320 pg/mL
same,OD450,[22],0.73
same,OD450,[23],0.21
same,Inhibition ratio (%),[24],9.6%
same,OD450,[25],0.15
same,OD450,[26],0.13
same,OD450,[27],0.13
same,OD450,[28],0.13
same,Inhibition ratio (%),[29],0.5%
